Publication PMC3391165

Target: zebrafish ΔP2X4-B (zebrafish) (UniProt F8W463)
Assay: crystal structure

Substance: zebrafish ΔP2X4-B (from UniProt F8W463 1-389) (receptor)
- stoichiometry N: 3
